Test results reported in patent US20170333524A1.

Tests used:
[1] = target: MART-1 (ELA peptide) peptide on HLA-A*02:01 (human); assay: SPR, Biacore 3000; TCR amine-coupled to a CM5 chip, refolded ELA/HLA-A2 injected, 25 °C (Table 3, ELA); soluble, other
[2] = target: MART-1 (ELA peptide) peptide on HLA-A*02:01 (human); assay: SPR, Biacore 3000; TCR on the chip, refolded pMHC injected. The row prints the target as 'AAG (SEQ ID NO 5', but its ratio 395.8 is taken against the WT ELA value 9.5, and Table 3 gives 0.024 under ELA); soluble, other
[3] = target: MART-1 (ELA peptide) peptide on HLA-A*02:01 (human); assay: SPR, Biacore 3000; TCR amine-coupled to a CM5 chip, refolded pMHC injected, 25 °C, 1:1 Langmuir fit; soluble, other

## DMF5 TCR αD26Y/βL98W
[1]
  Kd: 24 nM
[2]
  Kd: 24 nM

## DMF5 TCR βL98W
[3]
  Kd: 2900 nM
